Assay results: paper PMC12279200, “Tumor‐Associated Glycan Exploits Adenosine Receptor 2A Signaling to Facilitate Immune Evasion” (Advanced Science, 2025)
Substitutions are numbered along the chain they refer to. Names may count otherwise.

B1: translin‐associated factor‐X (TRAX), endogenous (natural protein, UniProt Q99598 1-290, looked up)
chain: MSNKEGSGGFRKRKHDNFPHNQRREGKDVNSSSPVMLAFKSFQQELDARHDKYERLVKLSRDITVESKRTIFLLHRITSAPDMEDILTESEIKLDGVRQKIFQVAQELSGEDMHQFHRAITTGLQEYVEAVSFQHFIKTRSLISMDEINKQLIFTTEDNGKENKTPSSDAQDKQFGTWRLRVTPVDYLLGVADLTGELMRMCINSVGNGDIDTPFEVSQFLRQVYDGFSFIGNTGPYEVSKKLYTLKQSLAKVENACYALKVRGSEIPKHMLADVFSVKTEMIDQEEGIS
notes: translin-associated factor X (TRAX), endogenous in human primary CD4+ T cells and in Jurkat cells; source: endogenous, human primary CD4+ T cell lysate; endogenous, Jurkat (Jurkat-vector) lysate
B2: recombinant TRAX (His‐tagged) (natural protein, UniProt Q99598 1-290, looked up)
chain: B1 chain
notes: translin-associated factor X (TRAX); source: Escherichia coli, His‐tagged recombinant protein
B3: FLAG‐tagged TRAX^(Q219A, Q223A) (natural protein, UniProt Q99598 1-290, looked up)
chain: B1 chain with Q219A, Q223A
notes: translin-associated factor X (TRAX) with Q219A and Q223A; also called mutTRAX‐FLAG; mutTRAX; source: Jurkat cells, lentivirus (Jurkat‐mutTRAX‐FLAG), in lysate
B4: adenosine receptor 2A (A2AR), endogenous (receptor, UniProt P29274 1-412, looked up)
chain: MPIMGSSVYITVELAIAVLAILGNVLVCWAVWLNSNLQNVTNYFVVSLAAADIAVGVLAIPFAITISTGFCAACHGCLFIACFVLVLTQSSIFSLLAIAIDRYIAIRIPLRYNGLVTGTRAKGIIAICWVLSFAIGLTPMLGWNNCGQPKEGKNHSQGCGEGQVACLFEDVVPMNYMVYFNFFACVLVPLLLMLGVYLRIFLAARRQLKQMESQPLPGERARSTLQKEVHAAKSLAIIVGLFALCWLPLHIINCFTFFCPDCSHAPLWLMYLAIVLSHTNSVVNPFIYAYRIREFRQTFRKIIRSHVLRQQEPFKAAGTSARVLAAHGSDGEQVSLRLNGHPPGVWANGSAPHPERRPNGYALGLVSGGSAQESQGNTGLPDVELLSHELKGVCPEPPGLDDPLAQDGAGVS
notes: adenosine receptor 2A (A2AR), endogenous in human primary CD4+ T cells and in Jurkat cells; also called A2a receptor; source: endogenous, human primary CD4+ T cell lysate; endogenous, Jurkat (Jurkat-vector and Jurkat-mutTRAX-FLAG) lysate

Key:
[1] = biological target: B4; assay: co-IP; Jurkat‐vector or Jurkat‐mutTRAX‐FLAG cells incubated with 30 µM GHCer or PBS at 37 °C for 1 h; immunoprecipitation with anti‐A2AR, anti‐TRAX or anti‐FLAG, western blot; details: partners not purified
[2] = biological target: B4; assay: co-IP; human primary CD4+ T cells incubated with 30 µM GHCer or PBS at 37 °C for 1 h; immunoprecipitation with anti‐A2AR or anti‐TRAX, western blot with anti‐TRAX or anti‐A2AR; details: partners not purified
[3] = biological target: T1, A2AR fragment F (aa 291–412) (UniProt P29274 291-412); assay: Luminex bead-based assay; A2AR‐His full length or fragments captured on Luminex beads conjugated with anti‐His antibody; TRAX in solution, detected by antibody and PE-conjugated antibody; with PBS, 30 µM GHCer or 30 µM GH‐biotin; PBS with 1% BSA, 37 °C, 60 min; signals normalised to full‐length A2AR/PBS/TRAX; details: both partners purified
T1 construct: adenosine receptor 2A (A2AR), C-terminal fragment F, aa 291–412; source: Escherichia coli, His‐tagged recombinant protein

[4] = biological target: T2, full‐length recombinant A2AR protein (A2AR‐His, fragment A) (UniProt P29274 1-412); assay: as above; details: both partners purified
T2 construct: adenosine receptor 2A (A2AR), full-length (fragment A); the printed end of fragment F (aa 412) fits the human protein; captured on beads by an anti-His antibody; also called full‐length N‐His‐A2AR; A2AR‐full length; source: Escherichia coli, His‐tagged recombinant protein; not shown: His, N-terminal, kept

[5] = biological target: T3, A2AR fragment E (aa 291–393) (UniProt P29274 291-393); assay: as above; details: both partners purified
T3 construct: adenosine receptor 2A (A2AR), C-terminal fragment E, aa 291–393; source: Escherichia coli, His‐tagged recombinant protein

[6] = biological target: B3; assay: co-IP; Jurkat‐vector or Jurkat‐mutTRAX‐FLAG cells incubated with 30 µM GHCer or PBS at 37 °C for 1 h; immunoprecipitation with anti‐A2AR, anti‐TRAX or anti‐FLAG, western blot; details: partners not purified
[7] = biological target: B1; assay: as above; details: partners not purified
[8] = biological target: B1; assay: co-IP; human primary CD4+ T cells incubated with 30 µM GHCer or PBS at 37 °C for 1 h; immunoprecipitation with anti‐A2AR or anti‐TRAX, western blot with anti‐TRAX or anti‐A2AR; details: partners not purified

B1
fold TRAX co-precipitated with GHCer over PBS control [1]: 2.3 fold | fold TRAX co-precipitated with GHCer over PBS control [2]: 2.1 fold

B2
fold binding signal with GHCer over fragment A without GHCer [3]: 1.8 fold | fold binding signal with 30 µM GHCer over PBS control [4]: 1.6 fold | fold binding signal with GHCer over fragment A without GHCer [4]: 1.5 fold | fold binding signal with GHCer over fragment A without GHCer [5]: 2.3 fold

B3
fold co-precipitated by anti‐A2AR with GHCer over PBS control [1]: 1 fold

B4
fold co-precipitated by anti‐FLAG with GHCer over PBS control [6]: 1.1 fold | fold A2AR co-precipitated with GHCer over PBS control [7]: 2 fold | fold A2AR co-precipitated with GHCer over PBS control [8]: 1.8 fold
